Experimental data taken from patent US20240117056A1 (IBIO, published 2024).

Legend:
[1] = biological target: T1, human EGFRvIII, purified recombinant protein (Acro Biosystems Cat #EGI-H52H4) (human, UniProt P00533 25-645); test: SPR (Carterra LSA), antibody captured on anti-human IgG, antigen injected, 1:1 Langmuir fit;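 note: EGFRvIII injected at five concentrations, fivefold serial dilution starting 500 nM, 5 min association then 15 min dissociation, double-referenced against interspot and buffer blank signals, global kinetic fit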
T1 construct: Bought protein; the deletion must be applied; also called truncated human EGFRvIII; huEGFRvIII

[2] = biological target: T2, human EGFRvIII overexpressed on cells (F98npEGFRvIII, U87MG-EGFRvIII, FaDu-EGFRvIII) (human, UniProt P00533 25-1210); test: cell-based or functional assay
[3] = biological target: T1, human EGFRvIII, purified recombinant …; test: ELISA, antigen coated at 1 ug/mL, anti-human IgG-HRP, n=3
[4] = biological target: T3, wild type human EGFR1 on cells (F98 EGFR1; wild type U87MG; wild type FaDu) (human, UniProt P00533 25-1210); test: flow cytometry on F98 EGFR1 cells, anti-human IgG Fc Alexa Fluor 647, MFI
T3 construct: whole, on cells

[5] = biological target: T4, human EGFR, purified recombinant protein (Acro Biosystems Cat #EGR-H5222) (human, UniProt P00533 25-645); test: ELISA, plate coated with human EGFR1, anti-human IgG-HRP, OD450
T4 construct: Bought protein; also called EGFR1; full length human EGFR1

[6] = biological target: T2, human EGFRvIII overexpressed on cells …; test: flow cytometry, F98npEGFRvIII cells, n=3
[7] = biological target: T2, human EGFRvIII overexpressed on cells …; test: cell-based or functional assay; remark: listed apart in the source
[8] = biological target: T3, wild type human EGFR1 on cells (F98 …); test: flow cytometry on wild type U87MG cells, anti-human IgG Fc Alexa Fluor 647, MFI
[9] = biological target: T4, human EGFR, purified recombinant …; test: SPR (Carterra LSA), antibody captured on anti-human IgG, EGFR1 injected in a 5-fold series from 500 nM
[10] = biological target: T2, human EGFRvIII overexpressed on cells …; test: flow cytometry, FaDu-EGFRvIII cells, n=3
[11] = biological target: T2, human EGFRvIII overexpressed on cells …; test: flow cytometry, U87MG-EGFRvIII cells, n=3
[12] = biological target: T2, human EGFRvIII overexpressed on cells …; test: cell-based or functional assay; remark: listed apart in the source
[13] = biological target: T4, human EGFR, purified recombinant …; test: SPR (Carterra LSA), antibody captured on anti-human IgG, EGFR1 injected in a 5-fold series from 500 nM; remark: listed apart in the source

Binder	Kd [1] [nM]	koff [1] [s⁻¹]	kon [1] [M⁻¹ s⁻¹]	ADCC EC50 (nM), F98 EGFRvIII cells with PBMC [2] [nM]	EC50 [3] [nM]	binding result [4]	binding result [5]	EC50 [6] [nM]	ADCC EC50 (nM), FaDu-EGFRvIII cells with PBMC [7] [nM]	binding result [8]	binding result [9]	EC50 [10] [nM]	EC50 [11] [nM]	ADCC EC50 (nM), U87MG-EGFRvIII cells with PBMC [12] [nM]	binding result [13]
SD-382591-afuc (antibody, V domains shown, afucosylated (FUT8 knock-out CHO)) VH: EVQLVQSGAEVKKPGASVKVSCKASGYTFTSYDINWVRQAPGQGLEWMGWIFPGDGTSKYAQKFQGRVTMTTDTSTSTAYMELSSLRSEDTAVYYCARRLGSHWGQGTTVTVSS VL: DIQLTQSPSSLSASVGDRVTITCKASQSVDSDGDSYMNWYQQKPGKAPKLLIYGASNLESGVPSRFSGSGSGTDFTLTISSLQPEDFATYYCQQSHEYPFTFGQGTKLEIK	131	0.0087	66000	0.106	0.103	no binding	no binding	4.13							
SD-577776-afuc (antibody, V domains shown, afucosylated (FUT8 knock-out CHO)) VH: EVQLVQSGAEVKKPGASVKLSCKASGYTFTSYDINWVRQAPGQGLEWIGWIFPGDGTSKYAQKFQGRATLTTDKSTSTAYMELSSLRSEDTAVYYCARRLGSHWGQGTTLTVSS VL: DIQLTQSPSSLSASVGDRATITCKASQSVDSDGDSYMNWYQQKPGKAPKLLIYGASNLESGIPSRFSGSGSGTDFTLTISSVQPEDFATYYCQQSHEYPFTFGQGTKLEIK	100	0.0058	57000	0.0687	0.122	no binding	no binding	3.46							
SD-633416-afuc (antibody, V domains shown, afucosylated (FUT8 knock-out CHO)) VH: EVQLVQSGAEVKKPGASVKVSCKASGYTFTSYDINWVRQAPGQGLEWMGWIFPGDGTSKYAQKFQGRVTMTRDTSTSTVYMELSSLRSEDTAVYYCARRLGSHWGQGTTVTVSS VL: DIQMTQSPSSLSASVGDRVTITCKASQSVDSDGDSYMNWYQQKPGKAPKLLIYGASNLESGVPSRFSGSGSGTDFTLTISSLQPEDFATYYCQQSHEYPFTFGQGTKLEIK	234	0.016	67000	0.289	0.121	no binding	no binding	13.8							
SD-638526-afuc (antibody, V domains shown, afucosylated (FUT8 knock-out CHO)) VH: EVQLVQSGAEVKKPGASVKVSCKASGYTFTSYDINWVRQAPGQGLEWMGWIFPGDGTSKYAQKFQGRVTMTTDKSTSTAYMELSSLRSEDTAVYYCARRLGSHWGQGTTVTVSS VL: DIQLTQSPSSLSASVGDRATITCKASQSVDSDGDSYMNWYQQKPGKAPKLLIYGASNLESGIPSRFSGSGSGTDFTLTISSVQPEDFATYYCQQSHEYPFTFGQGTKLEIK	122	0.0088	73000	0.111	0.102	no binding	no binding	3.21							
SD-233883-afuc (antibody, V domains shown, afucosylated, made in FUT8 knock-out CHO cells; also called chimera) VH: EVQLQQFGAELVKPGASVKLSCKASGYTFTSYDINWVRQRPEQGLEWIGWIFPGDGTSKYNEKFKGKATLSTDKSSSTAYMQLSRLTIEDSAVYFCARRLGSHWGQGSTLTVSS VL: DIVLTQSPASLAVSLGQRATISCKASQSVDSDGDSYMNWYQQKPGQPPKLLIYGASNLESGIPARFSGSGSGTDFSLNIHPVEEEDAATYYCQQSHEYPFTFGGGTKLEIK	40	0.003	74000	0.0082	0.144	no binding	no binding	2.07	0.0039			3.13	4.05	0.0026	

The next lines start with the values.

Kd [1] [nM]	koff [1] [s⁻¹]	kon [1] [M⁻¹ s⁻¹]	ADCC EC50 (nM), F98 EGFRvIII cells with PBMC [2] [nM]	EC50 [3] [nM]	binding result [4]	binding result [5]	EC50 [6] [nM]	ADCC EC50 (nM), FaDu-EGFRvIII cells with PBMC [7] [nM]	binding result [8]	binding result [9]	EC50 [10] [nM]	EC50 [11] [nM]	ADCC EC50 (nM), U87MG-EGFRvIII cells with PBMC [12] [nM]	binding result [13]	Binder
60	0.0026	43000		0.155				0.0058	no binding	no binding	4.98	5.75	0.0036		SD-837152-afuc (antibody, V domains shown, afucosylated (FUT8 knock-out CHO)) VH: QVQLVQSGAEVKKPGASVKVSCKASGYTFTSYDINWVRQAPGQRLEWMGWIFPGDGTSKYNEKFKGRVTITRDTSASTAYMELSSLRSEDTAVYYCARRLGSHWGQGTLVTVSS VL: DIVLTQSPASLAVSPGQRATITCKASQSVDSDGDSYMNWYQQKPGQPPKLLIYGASNLESGVPARFSGSGSGTDFTLTINPVEANDTANYYCQQSHEYPFTFGQGTKLEIK
159	0.011	66000	0.123	0.091	no binding		5.12							no binding	SD-741396-afuc (antibody, V domains shown, afucosylated (FUT8 knock-out CHO)) VH: EVQLVQSGAEVKKPGASVKVSCKASGYTFTSYDINWVRQAPGQGLEWMGWIFPGDGTSKYAQKFQGRVTMTTDTSTSTAYMELSSLRSEDTAVYYCARRLGSHWGQGTTVTVSS VL: DIQLTQSPSSLSASVGDRATITCKASQSVDSDGDSYMNWYQQKPGKAPKLLIYGASNLESGIPSRFSGSGSGTDFTLTISSVQPEDFATYYCQQSHEYPFTFGQGTKLEIK
86	0.0043	51000	0.0168	0.137	no binding		4.02							no binding	SD-710726-afuc (antibody, V domains shown, afucosylated (FUT8 knock-out CHO)) VH: EVQLVQSGAEVKKPGASVKLSCKASGYTFTSYDINWVRQAPGQGLEWIGWIFPGDGTSKYAQKFQGRATLTTDKSTSTAYMELSSLRSEDTAVYYCARRLGSHWGQGTTLTVSS VL: DIQLTQSPSSLSASVGDRVTITCKASQSVDSDGDSYMNWYQQKPGKAPKLLIYGASNLESGVPSRFSGSGSGTDFTLTISSLQPEDFATYYCQQSHEYPFTFGQGTKLEIK
90	0.0048	53000	0.0738	0.111	no binding		3.85			no binding					SD-844257-afuc (antibody, V domains shown, afucosylated (FUT8 knock-out CHO)) VH: EVQLVQSGAEVKKPGASVKLSCKASGYTFTSYDINWVRQAPGQGLEWIGWIFPGDGTSKYAQKFQGRATLTTDTSTSTAYMELSSLRSEDTAVYYCARRLGSHWGQGTTLTVSS VL: DIQLTQSPSSLSASVGDRVTITCKASQSVDSDGDSYMNWYQQKPGKAPKLLIYGASNLESGVPSRFSGSGSGTDFTLTISSLQPEDFATYYCQQSHEYPFTFGQGTKLEIK
108	0.0077	71000	0.0605	0.126	no binding		3.91			no binding					SD-787077-afuc (antibody, V domains shown, afucosylated (FUT8 knock-out CHO)) VH: EVQLVQSGAEVKKPGASVKVSCKASGYTFTSYDINWVRQAPGQGLEWMGWIFPGDGTSKYAQKFQGRVTMTTDKSTSTAYMELSSLRSEDTAVYYCARRLGSHWGQGTTVTVSS VL: DIQLTQSPSSLSASVGDRVTITCKASQSVDSDGDSYMNWYQQKPGKAPKLLIYGASNLESGVPSRFSGSGSGTDFTLTISSLQPEDFATYYCQQSHEYPFTFGQGTKLEIK
105	0.006	57000	0.0562	0.112	no binding		4.17							no binding	SD-757052-afuc (antibody, V domains shown, afucosylated (FUT8 knock-out CHO)) VH: EVQLVQSGAEVKKPGASVKLSCKASGYTFTSYDINWVRQAPGQGLEWIGWIFPGDGTSKYAQKFQGRATLTTDTSTSTAYMELSSLRSEDTAVYYCARRLGSHWGQGTTLTVSS VL: DIQLTQSPSSLSASVGDRATITCKASQSVDSDGDSYMNWYQQKPGKAPKLLIYGASNLESGIPSRFSGSGSGTDFTLTISSVQPEDFATYYCQQSHEYPFTFGQGTKLEIK
